Measured values taken from the supplement of paper PMC10126150.
± gives the standard deviation of the averaged measurements.

These sequences were tested on ATP (assay: switch fluorescence ratio, 500 uM ATP over buffer (Cy3 cluster intensity, sum of 5 cycles each) (fold (ratio)); higher = stronger signal-on switching upon ATP binding; sequences stand for … in TCGTCGGCAGCGTCAGATGTGTATAAGAGACAGTTTTTTTTTTTTTTTTTTTTTTTTT…TC). Conditions: aptamer strand: ATP DNA aptamer (quencher-CACCTGGGGGAGTATTGCGGAGGAAGG + anchor), 100 nM annealed; ATP concentration: 500 uM.
Procedure, shortened: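 Clusters carrying Cy3-labelled switching strands on a modified Illumina MiSeq flow-cell were annealed to 100 nM quencher-labelled ATP aptamer and imaged in selection buffer. They were imaged again after 15 min with 500 uM ATP at 22 °C, over five buffer/ATP cycles with NaOH stripping and re-annealing in between. For each cluster, the fluorescence ratio is the summed Cy3 intensity of the target cycles divided by that of the buffer cycles, averaged per switch-domain sequence. Clusters outside 100-1000 RFU were left out.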
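Note: ATP exposure 15 min at 22 °C before imaging.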

Row | Sequence | switch fluorescence ratio
1 | AGTTCATCTT | 0.964 ± 0.015
2 | AGTTCGATGT | 1.01 ± 0.025
3 | AGTTCGCTGT | 0.9889 ± 0.0067
4 | AGTTCGGGGT | 1.02 ± 0.024
5 | AGTTCGTAGT | 1.03 ± 0.049
6 | AGTTCGTTTT | 0.987 ± 0.019
7 | AGTTCTGGGT | 1.04 ± 0.081
8 | AGTTCTGTTT | 0.994 ± 0.047
9 | AGTTCTTATT | 0.965 ± 0.037
10 | AGTTGAAACA | 1.02 ± 0.016
11 | AGTTGAAGGA | 0.986 ± 0.027
12 | AGTTGAATT | 1.03 ± 0.046
13 | AGTTGACGGG | 1.03 ± 0.0082
14 | AGTTGACTTT | 0.986 ± 0.011
15 | AGTTGCATGC | 0.9677 ± 0.0093
16 | AGTTGGGACT | 1.016 ± 0.0068
17 | AGTTGGGATT | 1.032 ± 0.01
18 | AGTTGGGTAT | 1.02 ± 0.012
19 | AGTTGGGTTT | 0.9964 ± 0.0071
20 | AGTTGGTCGG | 0.975 ± 0.031
21 | AGTTGGTGAG | 0.98 ± 0.034
22 | AGTTGGTTTT | 1.02 ± 0.033
23 | AGTTGTAGGG | 1 ± 0.016
24 | AGTTGTATGG | 0.9738 ± 0.0049
25 | AGTTGTGTGC | 0.952 ± 0.044

Row | Sequence | switch fluorescence ratio
26 | AGTTGTGTTA | 1.007 ± 0.0057
27 | AGTTGTTACA | 1.01 ± 0.032
28 | AGTTGTTGTT | 0.981 ± 0.022
29 | AGTTGTTTCG | 1.016 ± 0.0023
30 | AGTTTAACGC | 0.9911 ± 0.0059
31 | AGTTTAAGAT | 1.005 ± 0.0071
32 | AGTTTACGAT | 1.037 ± 0.0099
33 | AGTTTACTTT | 1.03 ± 0.017
34 | AGTTTATTTT | 0.986 ± 0.034
35 | AGTTTCAGGC | 1.01 ± 0.031
36 | AGTTTCGGAA | 1.021 ± 0.0038
37 | AGTTTGCTGG | 0.996 ± 0.039
38 | AGTTTGGCAG | 0.998 ± 0.035
39 | AGTTTGGCTT | 0.99 ± 0.011
40 | AGTTTGGGTT | 1.01 ± 0.073
41 | AGTTTGTGGG | 0.984 ± 0.0025
42 | AGTTTGTGTG | 0.977 ± 0.014
43 | AGTTTGTTCC | 1.02 ± 0.047
44 | AGTTTTAAGG | 1 ± 0.025
45 | AGTTTTACAA | 1.03 ± 0.012
46 | AGTTTTACAT | 0.9608 ± 0.0018
47 | AGTTTTAGCC | 1 ± 0.027
48 | AGTTTTAGGT | 1.02 ± 0.036
49 | AGTTTTAGTA | 0.974 ± 0.03
50 | AGTTTTATCA | 0.97 ± 0.015

Row | Sequence | switch fluorescence ratio
51 | AGTTTTGTCG | 1.01 ± 0.022
52 | AGTTTTTTTA | 0.981 ± 0.018
53 | ATAAAAAAGC | 1.02 ± 0.074
54 | ATAAAAGGCG | 1.021 ± 0.0061
55 | ATAAAATCTA | 1.02 ± 0.061
56 | ATAAACTATA | 1.04 ± 0.06
57 | ATAAAGGGCC | 0.99 ± 0.012
58 | ATAAAGTTCC | 1.13 ± 0.038
59 | ATAAATCGAT | 1.023 ± 0.0018
60 | ATAAATGATA | 1 ± 0.049
61 | ATAAATGCCG | 0.961 ± 0.12
62 | ATAACACATG | 1.01 ± 0.032
63 | ATAACCATCA | 0.996 ± 0.057
64 | ATAAGAAGCG | 1.02 ± 0.04
65 | ATAAGCGATT | 1.03 ± 0.024
66 | ATAAGCGGGG | 1.01 ± 0.04
67 | ATAAGCTGGT | 0.953 ± 0.021
68 | ATAAGGAGTA | 1 ± 0.016
69 | ATAAGGCCTA | 0.991 ± 0.038
70 | ATAAGGCGAG | 0.998 ± 0.025
71 | ATAAGGGTAG | 1.028 ± 0.0054
72 | ATAAGGTCGC | 0.927 ± 0.021
73 | ATAAGGTTCC | 1.091 ± 0.005
74 | ATAAGTAACG | 1 ± 0.015
75 | ATAAGTACTC | 1.28 ± 0.1

Row | Sequence | switch fluorescence ratio
76 | ATAAGTCCGG | 1.03 ± 0.042
77 | ATAAGTGCAT | 1 ± 0.016
78 | ATAAGTGTCA | 0.9926 ± 0.0067
79 | ATAAGTTCTT | 0.995 ± 0.033
80 | ATAAGTTGGT | 0.987 ± 0.046
81 | ATAAGTTGTT | 0.993 ± 0.02
82 | ATAAGTTTTA | 0.989 ± 0.0099
83 | ATAATACGGG | 1.03 ± 0.017
84 | ATAATAGGTT | 0.986 ± 0.028
85 | ATAATATACT | 1.04 ± 0.055
86 | ATAATATGGT | 0.9838 ± 0.0036
87 | ATAATATTGG | 0.995 ± 0.013
88 | ATAATCCTGG | 0.987 ± 0.011
89 | ATAATCGGGA | 0.994 ± 0.034
90 | ATAATCTCTA | 0.9907 ± 0.0094
91 | ATAATGAGTC | 0.961 ± 0.013
92 | ATAATGGGTA | 0.97 ± 0.025
93 | ATAATGTATC | 1.03 ± 0.018
94 | ATAATGTGCA | 1.024 ± 0.0071
95 | ATAATGTTAC | 1.09 ± 0.029
96 | ATAATTCATG | 0.981 ± 0.029
97 | ATAATTCGTA | 0.96 ± 0.024
98 | ATAATTGTTC | 0.99 ± 0.031
99 | ATAATTTGCG | 0.9814 ± 0.0073
100 | ATACAAATTA | 1.01 ± 0.027

Row | Sequence | switch fluorescence ratio
101 | ATACCTGAGC | 1.113 ± 0.0041
102 | ATACCTTA | 1.02 ± 0.038
103 | ATACGAACGG | 1.48 ± 0.015
104 | ATACGAAGGA | 1 ± 0.028
105 | ATACGGGGTG | 1.1 ± 0.035
106 | ATACTATCTT | 0.996 ± 0.019
107 | ATACTATTGT | 1.029 ± 0.0037
108 | ATACTCGGTA | 0.997 ± 0.023
109 | ATACTGACAT | 1.2 ± 0.053
110 | ATACTTTGCT | 1 ± 0.034
111 | ATAGAACTAG | 1 ± 0.011
112 | ATAGAAGAG | 0.978 ± 0.017
113 | ATAGAATGGG | 0.9928 ± 0.0072
114 | ATAGACGTGT | 1.02 ± 0.092
115 | ATAGAGAAGC | 1.03 ± 0.025
116 | ATAGAGCCTA | 1.03 ± 0.02
117 | ATAGAGGAGT | 0.998 ± 0.032
118 | ATAGAGGTAG | 0.976 ± 0.017
119 | ATAGAGGTGG | 0.9979 ± 0.0022
120 | ATAGATAACG | 1 ± 0.035
121 | ATAGATAGGT | 0.99 ± 0.034
122 | ATAGATAGTG | 0.959 ± 0.015
123 | ATAGATCTGA | 1.03 ± 0.084
124 | ATAGATGGGG | 1.01 ± 0.018
125 | ATAGCAAAAT | 1.07 ± 0.13

Row | Sequence | switch fluorescence ratio
126 | ATAGCAGATG | 0.991 ± 0.046
127 | ATAGCAGGGG | 1.11 ± 0.082
128 | ATAGCAGTCG | 1.04 ± 0.077
129 | ATAGCAGTTT | 1.02 ± 0.013
130 | ATAGCCTGGT | 0.978 ± 0.018
131 | ATAGCTTTGA | 1.02 ± 0.0014
132 | ATAGGAAATA | 1.06 ± 0.035
133 | ATAGGAACGC | 0.995 ± 0.026
134 | ATAGGAAGGG | 0.996 ± 0.019
135 | ATAGGACTGA | 1.03 ± 0.023
136 | ATAGGAGAGC | 1.044 ± 0.0021
137 | ATAGGAGCGT | 0.979 ± 0.038
138 | ATAGGAGGGA | 1.01 ± 0.017
139 | ATAGGAGGTC | 1.01 ± 0.013
140 | ATAGGATGCC | 0.999 ± 0.019
141 | ATAGGCGAAA | 0.986 ± 0.022
142 | ATAGGCGCGC | 1.04 ± 0.014
143 | ATAGGCGTTT | 0.975 ± 0.018
144 | ATAGGGACAG | 1.012 ± 0.0078
145 | ATAGGGAGTG | 0.996 ± 0.043
146 | ATAGGGCGGC | 1.012 ± 0.0038
147 | ATAGGGCTGG | 0.968 ± 0.024
148 | ATAGGGGAAG | 1.01 ± 0.033
149 | ATAGGGGGTC | 0.988 ± 0.047
150 | ATAGGGGGTG | 1.03 ± 0.034

Row | Sequence | switch fluorescence ratio
151 | ATAGGGGTGT | 1.01 ± 0.062
152 | ATAGGGTACG | 1.06 ± 0.022
153 | ATAGGGTCGT | 0.998 ± 0.011
154 | ATAGGGTGAT | 1.03 ± 0.021
155 | ATAGGGTTGG | 0.996 ± 0.049
156 | ATAGGTAGCG | 1.01 ± 0.023
157 | ATAGGTCAGG | 1.026 ± 0.0022
158 | ATAGGTCTTC | 0.983 ± 0.059
159 | ATAGGTGCTT | 1.131 ± 0.01
160 | ATAGGTGTGG | 1.02 ± 0.035
161 | ATAGGTTACG | 1.21 ± 0.25
162 | ATAGGTTAGA | 1.06 ± 0.14
163 | ATAGGTTCGG | 0.968 ± 0.021
164 | ATAGGTTGGG | 0.996 ± 0.03
165 | ATAGTAACCG | 0.997 ± 0.083
166 | ATAGTACGTG | 1.01 ± 0.024
167 | ATAGTAGGCT | 0.994 ± 0.011
168 | ATAGTCGGGC | 0.99 ± 0.022
169 | ATAGTGATCG | 0.994 ± 0.042
170 | ATAGTGGAGG | 1.01 ± 0.025
171 | ATAGTGGTGG | 1.01 ± 0.052
172 | ATAGTTATCT | 1.03 ± 0.026
173 | ATAGTTCAGC | 0.9822 ± 0.0058
174 | ATAGTTGAGG | 0.981 ± 0.02
175 | ATAGTTTACT | 1.01 ± 0.024

Row | Sequence | switch fluorescence ratio
176 | ATAGTTTGAG | 1.01 ± 0.018
177 | ATAGTTTGCC | 0.994 ± 0.043
178 | ATAGTTTGGA | 0.947 ± 0.017
179 | ATATAATAGT | 0.991 ± 0.015
180 | ATATAATCAA | 0.98075 ± 0.00037
181 | ATATACGGGG | 1.04 ± 0.02
182 | ATATAGAGTT | 1.02 ± 0.082
183 | ATATAGGCTG | 1.01 ± 0.018
184 | ATATAGGGAT | 1.021 ± 0.007
185 | ATATAGGGTG | 1.09 ± 0.019
186 | ATATAGTCCT | 0.9714 ± 0.0023
187 | ATATAGTTTT | 0.953 ± 0.011
188 | ATATATAGTC | 1.02 ± 0.025
189 | ATATATATAT | 1.01 ± 0.012
190 | ATATATCGTT | 0.981 ± 0.024
191 | ATATATGGCT | 0.999 ± 0.035
192 | ATATATTTCG | 1.01 ± 0.017
193 | ATATCACGCT | 1.03 ± 0.023
194 | ATATCAGACT | 0.99 ± 0.015
195 | ATATCAGCGC | 1.03 ± 0.018
196 | ATATCATCTC | 1.002 ± 0.0063
197 | ATATCCCCCA | 1.15 ± 0.11
198 | ATATCCCTGG | 1.11 ± 0.013
199 | ATATCCGTTT | 0.974 ± 0.066
200 | ATATCGTTCG | 1.02 ± 0.054
